Measurements as given in patent US20240410900A1.

How the values were obtained:
[1] = biological target: non-targeted IgG-IL2 (interleukin-2 fused to the C-terminus of a heavy chain of a germline antibody, which is not binding to a target); assay: bridging ELISA, drug-Bi and drug-Dig, human pooled serum, binder 0.24 ng/mL assay / 4.9 ng/mL matrix
[2] = biological target: targeted IgG-IL2 (interleukin-2 fused to the C-terminus of a heavy chain of an antibody specifically binding to a therapeutic target); assay: as above
[3] = biological target: TCB (T-cell bispecific format) drug antibody; assay: as above
[4] = biological target: non-targeted IgG-IL2 (interleukin-2 fused to the C-terminus of a heavy chain of a germline antibody, which is not binding to a target); assay: bridging ELISA, IgG-IL2-Bi and -Dig, binder 500 ng/mL assay / 10000 ng/mL matrix
[5] = biological target: non-targeted IgG-IL2 (interleukin-2 fused to the C-terminus of a heavy chain of a germline antibody, which is not binding to a target); assay: bridging ELISA, IgG-IL2-Bi and -Dig, binder 0.2 ng/mL assay / 4.9 ng/mL matrix
[6] = biological target: non-targeted IgG-IL2 (interleukin-2 fused to the C-terminus of a heavy chain of a germline antibody, which is not binding to a target); assay: bridging ELISA, IgG-IL2-Bi and -Dig, binder 3.9 ng/mL assay / 78 ng/mL matrix
[7] = biological target: non-targeted IgG-IL2 (interleukin-2 fused to the C-terminus of a heavy chain of a germline antibody, which is not binding to a target); assay: bridging ELISA, drug-Bi and drug-Dig, human pooled serum, binder 125 ng/mL assay / 2500 ng/mL matrix
[8] = biological target: targeted IgG-IL2 (interleukin-2 fused to the C-terminus of a heavy chain of an antibody specifically binding to a therapeutic target); assay: as above
[9] = biological target: TCB (T-cell bispecific format) drug antibody; assay: as above
[10] = biological target: non-targeted IgG-IL2 (interleukin-2 fused to the C-terminus of a heavy chain of a germline antibody, which is not binding to a target); assay: bridging ELISA, drug-Bi and drug-Dig, human pooled serum, binder 0.00 ng/mL (blank)
[11] = biological target: targeted IgG-IL2 (interleukin-2 fused to the C-terminus of a heavy chain of an antibody specifically binding to a therapeutic target); assay: as above
[12] = biological target: TCB (T-cell bispecific format) drug antibody; assay: as above
[13] = biological target: non-targeted IgG-IL2 (interleukin-2 fused to the C-terminus of a heavy chain of a germline antibody, which is not binding to a target); assay: bridging ELISA, IgG-IL2-Bi and -Dig, binder 0.06 ng/mL assay / 1.2 ng/mL matrix
[14] = biological target: non-targeted IgG-IL2 (interleukin-2 fused to the C-terminus of a heavy chain of a germline antibody, which is not binding to a target); assay: bridging ELISA, IgG-IL2-Bi and -Dig, binder 2.0 ng/mL assay / 39 ng/mL matrix
[15] = biological target: non-targeted IgG-IL2 (interleukin-2 fused to the C-terminus of a heavy chain of a germline antibody, which is not binding to a target); assay: bridging ELISA, drug-Bi and drug-Dig, human pooled serum, binder 7.8 ng/mL assay / 156 ng/mL matrix
[16] = biological target: targeted IgG-IL2 (interleukin-2 fused to the C-terminus of a heavy chain of an antibody specifically binding to a therapeutic target); assay: as above
[17] = biological target: TCB (T-cell bispecific format) drug antibody; assay: as above
[18] = biological target: non-targeted IgG-IL2 (interleukin-2 fused to the C-terminus of a heavy chain of a germline antibody, which is not binding to a target); assay: bridging ELISA, drug-Bi and drug-Dig, human pooled serum, binder 250 ng/mL assay / 5000 ng/mL matrix
[19] = biological target: targeted IgG-IL2 (interleukin-2 fused to the C-terminus of a heavy chain of an antibody specifically binding to a therapeutic target); assay: as above
[20] = biological target: TCB (T-cell bispecific format) drug antibody; assay: as above
[21] = biological target: non-targeted IgG-IL2 (interleukin-2 fused to the C-terminus of a heavy chain of a germline antibody, which is not binding to a target); assay: bridging ELISA, drug-Bi and drug-Dig, human pooled serum, binder 500 ng/mL assay / 10000 ng/mL matrix
[22] = biological target: targeted IgG-IL2 (interleukin-2 fused to the C-terminus of a heavy chain of an antibody specifically binding to a therapeutic target); assay: as above
[23] = biological target: TCB (T-cell bispecific format) drug antibody; assay: as above
[24] = biological target: non-targeted IgG-IL2 (interleukin-2 fused to the C-terminus of a heavy chain of a germline antibody, which is not binding to a target); assay: bridging ELISA, IgG-IL2-Bi and -Dig, binder 250 ng/mL assay / 5000 ng/mL matrix
[25] = biological target: non-targeted IgG-IL2 (interleukin-2 fused to the C-terminus of a heavy chain of a germline antibody, which is not binding to a target); assay: bridging ELISA, IgG-IL2-Bi and -Dig, binder 0.00 ng/mL (blank)
[26] = biological target: non-targeted IgG-IL2 (interleukin-2 fused to the C-terminus of a heavy chain of a germline antibody, which is not binding to a target); assay: bridging ELISA, IgG-IL2-Bi and -Dig, binder 0.03 ng/mL assay / 0.6 ng/mL matrix

signal [AU] [1]: 0.045 AU | signal [AU] [2]: 0.055 AU | signal [AU] [3]: 0.0645 AU | signal [AU] [4]: 3.09 AU | signal [AU] [5]: 0.0645 AU | signal [AU] [6]: 0.286 AU | signal [AU] [7]: 1.4 AU | signal [AU] [8]: 3.05 AU | signal [AU] [9]: 3.05 AU | signal [AU] [10]: 0.041 AU | signal [AU] [11]: 0.0395 AU | signal [AU] [12]: 0.0425 AU | signal [AU] [13]: 0.056 AU | signal [AU] [14]: 0.165 AU | signal [AU] [15]: 0.137 AU | signal [AU] [16]: 0.475 AU | signal [AU] [17]: 0.654 AU | signal [AU] [18]: 2.17 AU | signal [AU] [19]: 2.99 AU | signal [AU] [20]: 2.99 AU | signal [AU] [21]: 2.81 AU | signal [AU] [22]: 3.01 AU | signal [AU] [23]: 2.99 AU | signal [AU] [24]: 3.04 AU | signal [AU] [25]: 0.053 AU | signal [AU] [26]: 0.0525 AU
B1: multivalent anti-PG antibody derived from clone 1.7.24 (mixed Pool 2, 3, 4) (antibody, V domains shown)
VH: EVKLLESGGGLVQPGGSLKLSCAASGFDFSRYWMNWVRQAPGKGLEWIGEITPDSSTINYTPSLKDKFIISRDNAKNTLYLQMIKVRSEDTALYYCVRPYDYGAWFASWGQGTLVTVSA
VL: QAVVTQESALTTSPGETVTLTCRSSTGAVTTSNYANWVQEKPDHLFTGLIGGTNKRAPGVPARFSGSLIGDKAALTITGAQTEDEAIYFCALWYSNHWVFGGGTKLTVL
modifications: lysine amines derivatised with SATP or MHS and cross-linked (sites not given)
